US6750057 (UNIVERSITY OF FLORIDA, dated 2004)

Biological target: Native MBP (UniProt P0AEX9 27-392 = MBP)
Assay: in vitro pull-down on amylose resin, SDS-PAGE and autoradiography
Protocol: The ^35S-labeled XA21 kinase was then incubated with resin-bound MBP or MBP fusion proteins (1 ug) in the binding buffer [20 mM Hepes (pH 7.4), 1 mM EDTA, 5 mM MgCl_2, 1 mM DTT, 0.1% Triton X-100, 1 mg/ml BSA, 1× complete protease inhibitors (Roche Diagnostics)] for 120 min at 4° C. with gentle shaking. After washing with the washing buffer [20 mM Hepes (pH 7.4), 1 mM EDTA, 5 mM MgCl_2, 1 mM DTT, 0.1% Triton X-100] five times, the bound proteins were eluted with the washing buffer supplemented with 10 mM maltose and resolved by 8% SDS-PAGE according to Laemmli. Laemmli, Nature 227, 680 (1970). The gel was stained with Coomassie brilliant blue R-250, dried, and exposed to X-ray film.

B1: 35S-labeled XA21 kinase (enzyme)
chain: HKRTKKGAPSRTSMKGHPLVSYSQLVKATDGFAPTNLLGSGSFGSVYKGKLNIQDHVAVKVLKLENPKALKSFTAECEALRNMRHRNLVKIVTICSSIDNRGNDFKAIVYDFMPNGSLEDWIHPETNDQADQRHLNLHRRVTILLDVACALDYLHRHGPEPVVHCDIKSSNVLLDSDMVAHVGDFGLARILVDGTSLIQQSTSSMGFIGTIGYAAPEYGVGLIASTHGDIYSYGILVLEIVTGKRPTDSTFRPDLGLRQYVELGLHGRVTDVVDTKLILDSENWLNSTNNSPCRRITECIVWLLRLGLSCSQELPSSRTPTGDIIDELNAIKQNLSGLFPVCEGGSLEF
modifications: 35S-methionine labelled by in vitro transcription/translation. The label does not change the letters.
notes: Made with the TnT kit from a pET-28a construct; also called XA21 protein labeled with 35S; not shown: Vector-encoded N-terminal leader of pET-28a (His/T7 tag and the few residues from the BamHI/SalI primer sites)
binding result: no binding (tested: 1 ug resin-bound protein)
